# In IntAct's records for PubMed 14504388:
# B1: CBL-interacting serine/threonine-protein kinase 24 (Arabidopsis thaliana (Mouse-ear cress)), Q9LDI3 (parent)
# chain: MTKKMRRVGKYEVGRTIGEGTFAKVKFARNTDTGDNVAIKIMAKSTILKNRMVDQIKREISIMKIVRHPNIVRLYEVLASPSKIYIVLEFVTGGELFDRIVHKGRLEESESRKYFQQLVDAVAHCHCKGVYHRDLKPENLLLDTNGNLKVSDFGLSALPQEGVELLRTTCGTPNYVAPEVLSGQGYDGSAADIWSCGVILFVILAGYLPFSETDLPGLYRKINAAEFSCPPWFSAEVKFLIHRILDPNPKTRIQIQGIKKDPWFRLNYVPIRAREEEEVNLDDIRAVFDGIEGSYVAENVERNDEGPLMMNAFEMITLSQGLNLSALFDRRQDFVKRQTRFVSRREPSEIIANIEAVANSMGFKSHTRNFKTRLEGLSSIKAGQLAVVIEIYEVAPSLFMVDVRKAAGETLEYHKFYKKLCSKLENIIWRATEGIPKSEILRTITF
# B2: Protein phosphatase 2C 77 (Arabidopsis thaliana (Mouse-ear cress)), O04719 (parent)
# chain: MDEVSPAVAVPFRPFTDPHAGLRGYCNGESRVTLPESSCSGDGAMKDSSFEINTRQDSLTSSSSAMAGVDISAGDEINGSDEFDPRSMNQSEKKVLSRTESRSLFEFKCVPLYGVTSICGRRPEMEDSVSTIPRFLQVSSSSLLDGRVTNGFNPHLSAHFFGVYDGHGGSQVANYCRERMHLALTEEIVKEKPEFCDGDTWQEKWKKALFNSFMRVDSEIETVAHAPETVGSTSVVAVVFPTHIFVANCGDSRAVLCRGKTPLALSVDHKPDRDDEAARIEAAGGKVIRWNGARVFGVLAMSRSIGDRYLKPSVIPDPEVTSVRRVKEDDCLILASDGLWDVMTNEEVCDLARKRILLWHKKNAMAGEALLPAEKRGEGKDPAAMSAAEYLSKMALQKGSKDNISVVVVDLKGIRKFKSKSLN
# partner: B1 chain
# Variants of: B1
# Conditions: with ABI2, O04719
row,effect of a mutation on the interaction,Variant
1,decreasing interaction,MTKKMRRVGKYEVGRTIGEGTFAKVKFARNTDTGDNVAIKIMAKSTILKNRMVDQIKREISIMKIVRHPNIVRLYEVLASPSKIYIVLEFVTGGELFDRIVHKGRLEESESRKYFQQLVDAVAHCHCKGVYHRDLKPENLLLDTNGNLKVSDFGLSALPQEGVELLRTTCGTPNYVAPEVLSGQGYDGSAADIWSCGVILFVILAGYLPFSETDLPGLYRKINAAEFSCPPWFSAEVKFLIHRILDPNPKTRIQIQGIKKDPWFRLNYVPIRAREEEEVNLDDIRAVFDGIEGSYVAENVERNDEGPLMMNAFEMITLSQGLNLSALFDRRQDFVKRQTAAVSRREPSEIIANIEAVANSMGFKSHTRNFKTRLEGLSSIKAGQLAVVIEIYEVAPSLFMVDVRKAAGETLEYHKFYKKLCSKLENIIWRATEGIPKSEILRTITF [R340A;F341A]

# Variants of: B2
# Conditions: with cipko_arath CIPK24, Q9LDI3
row,effect of a mutation on the interaction,Variant
1,decreasing interaction,MDEVSPAVAVPFRPFTDPHAGLRGYCNGESRVTLPESSCSGDGAMKDSSFEINTRQDSLTSSSSAMAGVDISAGDEINGSDEFDPRSMNQSEKKVLSRTESRSLFEFKCVPLYGVTSICGRRPEMEDSVSTIPRFLQVSSSSLLDGRVTNGFNPHLSAHFFGVYDGHDGSQVANYCRERMHLALTEEIVKEKPEFCDGDTWQEKWKKALFNSFMRVDSEIETVAHAPETVGSTSVVAVVFPTHIFVANCGDSRAVLCRGKTPLALSVDHKPDRDDEAARIEAAGGKVIRWNGARVFGVLAMSRSIGDRYLKPSVIPDPEVTSVRRVKEDDCLILASDGLWDVMTNEEVCDLARKRILLWHKKNAMAGEALLPAEKRGEGKDPAAMSAAEYLSKMALQKGSKDNISVVVVDLKGIRKFKSKSLN [G168D]
2,decreasing interaction,MDEVSPAVAVPFRPFTDPHAGLRGYCNGESRVTLPESSCSGDGAMKDSSFEINTRQDSLTSSSSAMAGVDISAGDEINGSDEFDPRSMNQSEKKVLSRTESRSLFEFKCVPLYGVTSICGRRPEMEDSVSTIPRFLQVSSSSLLDGRVTNGFNPHLSAHFFDVYDGHGGSQVANYCRERMHLALTEEIVKEKPEFCDGDTWQEKWKKALFNSFMRVDSEIETVAHAPETVGSTSVVAVVFPTHIFVANCGDSRAVLCRGKTPLALSVDHKPDRDDEAARIEAAGGKVIRWNGARVFGVLAMSRSIGDRYLKPSVIPDPEVTSVRRVKEDDCLILASDGLWDVMTNEEVCDLARKRILLWHKKNAMAGEALLPAEKRGEGKDPAAMSAAEYLSKMALQKGSKDNISVVVVDLKGIRKFKSKSLN [G162D]
